# Measured values reported in publication PMC3265611.
# T1: Flag-yTdp1 H432N (Saccharomyces cerevisiae, UniProt P38319 1-544, H432N)
# T1 sequence: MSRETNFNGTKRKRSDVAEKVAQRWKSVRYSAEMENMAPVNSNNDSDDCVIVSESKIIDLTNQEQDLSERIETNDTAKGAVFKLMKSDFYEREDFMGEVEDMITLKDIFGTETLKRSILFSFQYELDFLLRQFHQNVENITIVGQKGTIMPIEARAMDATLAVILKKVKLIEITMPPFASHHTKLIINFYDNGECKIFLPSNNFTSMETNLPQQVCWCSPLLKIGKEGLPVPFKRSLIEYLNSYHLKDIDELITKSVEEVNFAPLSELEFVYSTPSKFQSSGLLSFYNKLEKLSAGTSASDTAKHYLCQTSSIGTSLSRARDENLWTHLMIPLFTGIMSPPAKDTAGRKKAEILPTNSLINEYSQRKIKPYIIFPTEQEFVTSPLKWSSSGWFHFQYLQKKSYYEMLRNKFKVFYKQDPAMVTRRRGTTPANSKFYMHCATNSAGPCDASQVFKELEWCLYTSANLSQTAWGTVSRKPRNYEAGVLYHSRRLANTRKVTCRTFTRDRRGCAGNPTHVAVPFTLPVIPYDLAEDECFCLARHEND
# Molecular target: T1, Flag-yTdp1 H432N
# Assay: EMSA
binder,measurement,value
"GATCTAAAAGACTT (ssDNA, 3' phosphotyrosine) [3'-pY 14-mer substrate]",binding result,no binding
